Assay results published in patent US20220298225A1, “METHODS AND COMPOSITIONS FOR TREATING CANCER WITH COLLAGEN BINDING DRUG CARRIERS” (The University of Chicago, priority 2019, published 2022).

What was measured:
collagen type I = collagen type I (Homo sapiens, UniProt P02452+P08123); test: Binding affinity of CBD-SA to collagen by ELISA
Experimental: (§1) The binding affinity of CBD-SA to collagens were tested as described previously (9). 96 well ELISA plates (Greiner Bio-One) were coated with collagen I or collagen III (10 μg/mL each in PBS) for overnight at 37° C., followed by blocking with 2% BSA in PBS with 0.05% Tween 20 (PBS-T) for 1 h at room temperature. Then, wells were washed with PBS-T and further incubated with CBD-SA at increasing concentrations for 2 h at room temperature. After three washes with PBS-T, wells were incubated for 1 h at room temperature with biotin- conjugated Abs against mouse SA. After washes, bound CBD-SA were detected with tetramethylbenzidine substrate by measurement of the absorbance at 450 nm with subtraction of the absorbance at 570 nm. The apparent Kd values were obtained by nonlinear regression analysis in Prism software (version 7, GraphPad) assuming one-site-specific binding.

collagen type III = molecular target: T1, collagen type III (Homo sapiens, UniProt P02461); test: Binding affinity of CBD-SA to collagen by ELISA
T1 sequence (P02461 154-1221 limits assumed): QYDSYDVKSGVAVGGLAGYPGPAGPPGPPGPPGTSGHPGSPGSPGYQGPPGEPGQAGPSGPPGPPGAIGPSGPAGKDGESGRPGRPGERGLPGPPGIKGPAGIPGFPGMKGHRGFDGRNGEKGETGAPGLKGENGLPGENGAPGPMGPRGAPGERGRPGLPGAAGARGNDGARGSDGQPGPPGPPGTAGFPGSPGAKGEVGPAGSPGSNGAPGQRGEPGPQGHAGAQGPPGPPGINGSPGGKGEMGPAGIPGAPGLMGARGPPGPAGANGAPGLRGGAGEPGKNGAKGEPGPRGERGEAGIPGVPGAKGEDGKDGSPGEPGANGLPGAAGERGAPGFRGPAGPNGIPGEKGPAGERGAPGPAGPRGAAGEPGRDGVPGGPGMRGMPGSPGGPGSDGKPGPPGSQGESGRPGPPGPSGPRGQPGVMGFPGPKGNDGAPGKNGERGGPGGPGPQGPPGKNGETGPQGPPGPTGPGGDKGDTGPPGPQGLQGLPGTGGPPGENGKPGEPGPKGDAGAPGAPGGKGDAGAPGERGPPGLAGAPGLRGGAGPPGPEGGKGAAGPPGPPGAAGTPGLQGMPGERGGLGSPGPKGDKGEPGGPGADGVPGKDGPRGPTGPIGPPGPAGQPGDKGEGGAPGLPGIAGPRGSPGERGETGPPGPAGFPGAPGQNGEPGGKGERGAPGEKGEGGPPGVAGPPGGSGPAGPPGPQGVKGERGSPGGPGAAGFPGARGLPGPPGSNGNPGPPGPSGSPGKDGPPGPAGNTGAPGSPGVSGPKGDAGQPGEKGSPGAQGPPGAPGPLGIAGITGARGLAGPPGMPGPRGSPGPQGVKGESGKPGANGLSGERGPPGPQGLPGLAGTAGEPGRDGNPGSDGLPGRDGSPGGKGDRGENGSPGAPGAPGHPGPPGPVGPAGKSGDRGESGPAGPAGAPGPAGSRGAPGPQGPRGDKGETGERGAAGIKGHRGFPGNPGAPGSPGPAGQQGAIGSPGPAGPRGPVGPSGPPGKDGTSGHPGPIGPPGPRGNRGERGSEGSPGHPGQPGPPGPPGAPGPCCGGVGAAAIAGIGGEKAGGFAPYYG
Experimental: as §1

MMTV-PyMT tumor = test: Histological analysis of injected CBD-SA within tumor; format: in vivo, mouse; conditions: 1 h after i.v. injection, CD31 staining
Experimental: Mouse SA (Sigma-Aldrich) and CBD-SA were conjugated with NHS-DyLight 488 according to manufacturer's instructions. Unreacted dye was removed by Zeba spin desalting column, then fluorescent protein solution was stored at 4° C. until use. 100 μg of fluorescent labeled SA or CBD-SA labeled with equimolar of dye was intravenously injected to MMTV-PyMT tumor-bearing mice. 1 h after injection, tumors were harvested and frozen in dry ice with OCT compound. 10 μm of tissue slices were obtained by cryo-sectioning. The tissues were fixed with 2% paraformaldehyde in PBS for 15 min at room temperature. After wash with PBS-T, the tissues were blocked with 2% BSA in PBS-T for 1 h at room temperature. The tissues were stained with biotin labeled anti-mouse CD31 antibody (1:100, Biolegend) and Alexa Fluor 647 streptavidin (1:1000, Biolegend). The tissues were washed three times, then covered with ProLong gold antifade mountant with DAPI (Thermo fisher scientific). IX83 microscope (Olympus) was used for imaging with ×60 magnification. Images were processed using ImageJ software (NIH).

Chain of collagen type I (P02452 162-1218 limits assumed): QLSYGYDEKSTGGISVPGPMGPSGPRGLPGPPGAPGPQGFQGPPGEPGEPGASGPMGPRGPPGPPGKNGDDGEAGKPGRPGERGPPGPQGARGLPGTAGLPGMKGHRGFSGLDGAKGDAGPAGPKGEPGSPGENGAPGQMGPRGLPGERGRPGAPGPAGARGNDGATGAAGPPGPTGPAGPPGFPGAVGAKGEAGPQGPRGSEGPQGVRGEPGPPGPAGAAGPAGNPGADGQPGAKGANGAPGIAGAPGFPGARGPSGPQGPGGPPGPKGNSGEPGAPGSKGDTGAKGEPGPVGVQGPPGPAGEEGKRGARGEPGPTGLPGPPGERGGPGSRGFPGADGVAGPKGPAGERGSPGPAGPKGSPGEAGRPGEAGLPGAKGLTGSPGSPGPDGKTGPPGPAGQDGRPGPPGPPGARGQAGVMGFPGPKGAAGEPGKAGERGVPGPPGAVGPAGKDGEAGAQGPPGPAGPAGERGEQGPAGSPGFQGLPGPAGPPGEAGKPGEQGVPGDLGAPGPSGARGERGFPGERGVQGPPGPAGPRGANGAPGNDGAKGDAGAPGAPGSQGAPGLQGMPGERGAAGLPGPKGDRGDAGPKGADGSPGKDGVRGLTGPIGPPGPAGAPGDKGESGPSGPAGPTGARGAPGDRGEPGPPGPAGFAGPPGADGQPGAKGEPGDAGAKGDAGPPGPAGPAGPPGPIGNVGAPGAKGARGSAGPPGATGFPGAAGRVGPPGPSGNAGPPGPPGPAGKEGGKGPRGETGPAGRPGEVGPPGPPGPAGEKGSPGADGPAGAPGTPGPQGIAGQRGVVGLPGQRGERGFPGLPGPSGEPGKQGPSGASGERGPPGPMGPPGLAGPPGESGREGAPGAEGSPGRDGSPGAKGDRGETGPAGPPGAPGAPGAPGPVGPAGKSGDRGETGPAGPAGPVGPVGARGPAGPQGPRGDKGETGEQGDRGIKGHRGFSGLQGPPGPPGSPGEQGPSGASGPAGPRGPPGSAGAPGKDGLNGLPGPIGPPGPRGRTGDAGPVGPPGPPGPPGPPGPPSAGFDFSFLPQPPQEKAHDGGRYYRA
Chain of collagen type I (P08123 80-1119 limits assumed): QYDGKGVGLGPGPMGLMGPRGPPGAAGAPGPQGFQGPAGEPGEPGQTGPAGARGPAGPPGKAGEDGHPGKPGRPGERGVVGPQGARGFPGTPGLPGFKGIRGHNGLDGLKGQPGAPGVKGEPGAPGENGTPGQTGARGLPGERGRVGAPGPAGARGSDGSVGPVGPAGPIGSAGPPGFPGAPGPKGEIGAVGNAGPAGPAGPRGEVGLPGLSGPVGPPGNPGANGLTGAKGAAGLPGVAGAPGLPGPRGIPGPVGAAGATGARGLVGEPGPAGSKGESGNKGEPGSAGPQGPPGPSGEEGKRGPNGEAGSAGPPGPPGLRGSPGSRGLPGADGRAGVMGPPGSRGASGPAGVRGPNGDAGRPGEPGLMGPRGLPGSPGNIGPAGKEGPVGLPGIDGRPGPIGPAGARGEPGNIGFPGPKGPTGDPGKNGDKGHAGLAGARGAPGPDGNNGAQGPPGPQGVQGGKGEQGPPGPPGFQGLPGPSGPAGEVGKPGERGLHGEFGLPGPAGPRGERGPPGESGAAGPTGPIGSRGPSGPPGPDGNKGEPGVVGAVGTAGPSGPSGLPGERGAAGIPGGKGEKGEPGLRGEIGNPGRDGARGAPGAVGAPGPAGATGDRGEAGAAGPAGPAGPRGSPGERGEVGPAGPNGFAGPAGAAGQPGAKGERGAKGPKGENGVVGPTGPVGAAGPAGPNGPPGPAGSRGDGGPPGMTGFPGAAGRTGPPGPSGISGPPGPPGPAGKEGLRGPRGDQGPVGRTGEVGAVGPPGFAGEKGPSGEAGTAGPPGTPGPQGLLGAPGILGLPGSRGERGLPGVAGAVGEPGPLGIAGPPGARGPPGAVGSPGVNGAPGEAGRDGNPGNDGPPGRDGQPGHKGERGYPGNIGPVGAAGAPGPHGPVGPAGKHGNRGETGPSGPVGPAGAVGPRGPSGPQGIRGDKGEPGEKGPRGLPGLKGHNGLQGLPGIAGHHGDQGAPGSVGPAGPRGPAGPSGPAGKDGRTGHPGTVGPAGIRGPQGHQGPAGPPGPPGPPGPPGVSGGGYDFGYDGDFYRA

B1: CBD-SA: recombinant mouse serum albumin with VWF A3 collagen binding domain on the N-terminus via (GGGS)2 linker (SEQ ID NO:3) (protein)
chain: CSQPLDVILLLDGSSSFPASYFDEMKSFAKAFISKANIGPRLTQVSVLQYGSITTIDVPWNVVPEKAHLLSLVDVMQREGGPSQIGDALGFAVRYLTSEMHGARPGASKAVVILVTDVSVDSVDAAADAARSNRVTVFPIGIGDRYDAAQLRILAGPAGDSNVVKLQRIEDLPTMVTLGNSFLHKLCSGFVRIGGGSGGGSEAHKSEIAHRYNDLGEQHFKGLVLIAFSQYLQKCSYDEHAKLVQEVTDFAKTCVADESAANCDKSLHTLFGDKLCAIPNLRENYGELADCCTKQEPERNECFLQHKDDNPSLPPFERPEAEAMCTSFKENPTTFMGHYLHEVARRHPYFYAPELLYYAEQYNEILTQCCAEADKESCLTPKLDGVKEKALVSSVRQRMKCSSMQKFGERAFKAWAVARLSQTFPNADFAEITKLATDLTKVNKECCHGDLLECADDRAELAKYMCENQATISSKLQTCCDKPLLKKAHCLSEVEHDTMPADLPAIAADFVEDQEVCKNYAEAKDVFLGTFLYEYSRRHPDYSVSLLLRLAKKYEATLEKCCAEANPPACYGTVLAEFQPLVEEPKNLVKTNCDLYEKLGEYGFQNAILVRYTQKAPQVSTPTLVEAARNLGRVGTKCCTLPEDQRLPCVEDYLSAILNRVCLLHEKTPVSEHVTKCCSGSLVERRPCFSALTVDETYVPKEFKAETFTFHSDICTLPEKEKQIKKQTALAELVKHKPKATAEQLKTVMDDFAQFLDTCCKAADKDTCFSTEGPNLVTRCKDALAHHHHHH
B1 was tested, and the “dissociation constant (Kd) to collagen type I” value (collagen type I) was “nM range”, the “dissociation constant (Kd) to collagen type III” value (collagen type III) was “nM range” and the “localization of fluorescently-labeled protein within tumor tissue” value (MMTV-PyMT tumor) was “co-localized with CD31 staining within tumor tissue”.
